Data: US20120164659A1 (NEXIGEN, published 2012)

B1: membrane-associated Ring-finger 7 (MARCH7), prey fusion with myristoylation signal from the human hepatocyte cDNA library (other)
chain: MESKPSRIPRRISVQPSSSLSARMMSGSRGSSLNDTYHSRDSSFRLDSEYQSTSASASASPFQSAWYSESEITQGARSRSQNQQRDHDSKRPKLSCTNCTTSAGRNVGNGLNTLSDSSWRHSQVPRSSSMVLGSFGTDLMRERRDLERRTDSSISNLMDYSHRSGDFTTSSYVQDRVPSYSQGARPKENSMSTLQLNTSSTNHQLPSEHQTILSSRDSRNSLRSNFSSRESESSRSNTQPGFSYSSSRDEAPIISNSERVVSSQRPFQESSDNEGRRTTRRLLSRIASSMSSTFFSRRSSQDSLNTRSLNSENSYVSPRILTASQSRSNVPSASEVPDNRASEASQGFRFLRRRWGLSSLSHNHSSESDSENFNQESEGRNTGPWLSSSLRNRCTPLFSRRRREGRDESSRIPTSDTSSRSHIFRRESNEVVHLEAQNDPLGAAANRPQASAASSSATTGGSTSDSAQGGRNTGISGILPGSLFRFAVPPALGSNLTDNVMITVDIIPSGWNSADGKSDKTKSAPSRDPERLQKIKESLLLEDSEEEEGDLCRICQMAAASSSNLLIEPCKCTGSLQYVHQDCMKKWLQAKINSGSSLEAVTTCELCKEKLELNLEDFDIHELHRAHANEQAEYEFISSGLYLVVLLHLCEQSFSDMMGNTNEPSTRVRFINLARTLQAHMEDLETSEDDSEEDGDHNRTFDIA
modifications: myristoylation signal at the N-terminus (membrane localisation)
notes: also called axotrophin; membrane-associated RING-CH protein VII; not shown: myristoylation signal of the pmyr library vector
B2: Interferone-induced guanylate binding protein-2 (GBP2), prey fusion with myristoylation signal from the human hepatocyte cDNA library (other)
chain: MAPEINLPGPMSLIDNTKGQLVVNPEALKILSAITQPVVVVAIVGLYRTGKSYLMNKLAGKKNGFSLGSTVKSHTKGIWMWCVPHPKKPEHTLVLLDTEGLGDIEKGDNENDSWIFALAILLSSTFVYNSMGTINQQAMDQLHYVTELTDRIKANSSPGNNSVDDSADFVSFFPAFVWTLRDFTLELEVDGEPITADDYLELSLKLRKGTDKKSKSFNDPRLCIRKFFPKRKCFVFDWPAPKKYLAHLEQLKEEELNPDFIEQVAEFCSYILSHSNVKTLSGGIPVNGPRLESLVLTYVNAISSGDLPCMENAVLALAQIENSAAVEKAIAHYEQQMGQKVQLPTETLQELLDLHRDSEREAIEVFMKNSFKDVDQMFQRKLGAQLEARRDDFCKQNSKASSDCCMALLQDIFGPLEEDVKQGTFSKPGGYRLFTQKLQELKNKYYQVPRKGIQAKEVLKKYLESKEDVADALLQTDQSLSEKEKAIEVERIKAESAEAAKKMLEEIQKKNEEMMEQKEKSYQEHVKQLTEKMERDRAQLMAEQEKTLALKLQEQERLLKEGFENESKRLQKDIWDIQMRSKSLEPICNIL
modifications: myristoylation signal at the N-terminus (membrane localisation)
notes: also called NM-004120; not shown: myristoylation signal of the pmyr library vector

What was measured:
[1] = target: T1, Sos-2xSpc-Vif fusion protein (negative control target protein, expressed from pADH-Sos-2xSpc-vif); test: Sos recruitment system in cdc25-2 yeast, growth at 37 C on galactose (FIG. 2 row D: MARCH7+SOS-Vif)
T1 construct: Heterologous control bait in cdc25-2 yeast; also called Sos-Vif; SOS-Vif

[2] = target: T1, Sos-2xSpc-Vif fusion protein (negative …); test: Sos recruitment system in cdc25-2 yeast, growth at 37 C on galactose (FIG. 2 row B: GBP2+Sos-Vif)

Binder | binding result [1] | binding result [2]
B1 | no binding | –
B2 | – | no binding
